Test results taken from publication PMC4491196.

Biological target: Dnmt3a (ADD domain, ADD3a) ADD domain, 479-610 or 476-611 (UniProt Q9Y6K1)
Test: biotin-peptide pull-down, Coomassie
Conditions: reference: unmodified H3 peptide; sites S10

histone H3 (N-terminal peptides) (from UniProt P68431) H3S10ph peptide
binding against the reference: same
